Reference: patent US20160333061A1
Values belong to the substance of their own block, whether it stands above or below them.

Experiments:
Assay in all cases: cell-based or functional assay
[1] = molecular target: CytERM-EBFP2 (Aequorea victoria (Water jellyfish) (Mesonema victoria)) [GFP: P42212]
[2] = molecular target: CytERM-mTagBFP
[3] = molecular target: CytERM-moxBFP (Aequorea victoria (Water jellyfish) (Mesonema victoria)) [GFP: P42212]

% Cells with OSER Structures (n = cells) [1]: 63.7%
Substance: CytERM-EBFP2 (from UniProt P42212 2-238)

% Cells with OSER Structures (n = cells) [2]: 43.5%
Substance: CytERM-mTagBFP

% Cells with OSER Structures (n = cells) [3]: 0.9%
Substance: CytERM-moxBFP (from UniProt P42212 2-238)
